Assay results: PMC6422423, “Constitutively active BRS3 is a genuinely orphan GPCR in placental mammals” (PLoS Biology, 2019)
Substitutions are numbered along the chain they refer to. Names and notes keep the numbering of the source.

What was measured:
human BRS3 (hBRS3) = test: Luciferase reporter, constitutive activity (WT, mutants, truncated; with/without inhibitor); assay type: cell-based; settings: for luciferase, CRE / luciferase, NFAT / luciferase, SRE / luciferase, SRF: Blank = 1; for CRE luciferase reporter activity relative to Blank (Blank = 1) / NFAT luciferase reporter activity relative to Blank (Blank = 1) / SRF luciferase reporter activity relative to Blank (Blank = 1): constitutive, hBRS3 WT and mutant 3
Description: (§1) To detect constitutive activity of BRS3, HEK293 cells were seeded in 24-well plates and cotransfected with the CRE/NFAT-RE/SRF-RE/SRE luciferase reporter plasmids (50 ng), the BRS3 from different species, or BRS3 mutants with different doses (10 ng/50 ng/150 ng); after 24 h, cells were further incubated in serum-free media for another 12 h before luciferase assay. As for peptide supplementation treatment, HEK293 cells were cotransfected with the CRE/NFAT-RE/SRF-RE/SRE luciferase reporter plasmids (50 ng) and various genes (300 ng) of the bombesin receptor family. […] Luciferase activities were determined using luciferase assay kits (Beyotime, Shanghai, China) and normalized to β-galactosidase activity. All experiments were performed at least three times in triplicates. HEK293 cells transfected with pcDNA were used as a blank control in all luciferase experiments, and the fold was calculated compared to blank control.

mouse BRS3 (mBRS3) = test: as above; assay type: cell-based; set-up: key to constitutive luciferase activity: fold over pcDNA-transfected blank control (blank = 1); settings: for luciferase, CRE / luciferase, NFAT / luciferase, SRE / luciferase, SRF: Blank = 1; for constitutive luciferase activity: no ligand; for CRE luciferase reporter activity relative to Blank (Blank = 1) / NFAT luciferase reporter activity relative to Blank (Blank = 1) / SRF luciferase reporter activity relative to Blank (Blank = 1): constitutive, full-length mBRS3 and truncated N-mBRS3
Description: as §1

[1] = third line, unlabelled, equals mean of the two replicates

B1: human (protein, UniProt P32247 1-399, looked up)
Bombesin receptor subtype-3: MAQRQPHSPNQTLISITNDTESSSSVVSNDNTNKGWSGDNSPGIEALCAIYITYAVIISVGILGNAILIKVFFKTKSMQTVPNIFITSLAFGDLLLLLTCVPVDATHYLAEGWLFGRIGCKVLSFIRLTSVGVSVFTLTILSADRYKAVVKPLERQPSNAILKTCVKAGCVWIVSMIFALPEAIFSNVYTFRDPNKNMTFESCTSYPVSKKLLQEIHSLLCFLVFYIIPLSIISVYYSLIARTLYKSTLNIPTEEQSHARKQIESRKRIARTVLVLVALFALCWLPNHLLYLYHSFTSQTYVDPSAMHFIFTIFSRVLAFSNSCVNPFALYWLSKSFQKHFKAQLFCCKAERPEPPVADTSLTTLAVMGTVPGTGSIQMSEISVTSFTGCSVKQAEDRF
luciferase, CRE (human BRS3 (hBRS3); value 1 of 3): 4.2545 | luciferase, NFAT (human BRS3 (hBRS3); value 1 of 3): 6.3808 | luciferase, SRE (human BRS3 (hBRS3); value 1 of 3): 1.2780 | luciferase, SRF (human BRS3 (hBRS3); value 1 of 3): 4.0202 | luciferase, CRE (human BRS3 (hBRS3); value 2 of 3): 3.9246 | luciferase, NFAT (human BRS3 (hBRS3); value 2 of 3): 6.2351 | luciferase, SRE (human BRS3 (hBRS3); value 2 of 3): 1.0242 | luciferase, SRF (human BRS3 (hBRS3); value 2 of 3): 3.9201 | luciferase, CRE (human BRS3 (hBRS3); value 3 of 3): 4.0896 | luciferase, NFAT (human BRS3 (hBRS3); value 3 of 3): 6.5264 | luciferase, SRE (human BRS3 (hBRS3); value 3 of 3): 1.5319 | luciferase, SRF (human BRS3 (hBRS3); value 3 of 3): 4.1204

B2: hBRS3-WT (protein, UniProt P32247 1-399, looked up)
Bombesin receptor subtype-3: B1 Bombesin receptor subtype-3
CRE luciferase reporter activity relative to Blank (Blank = 1) (human BRS3 (hBRS3); replicate 1): 4.2545 | CRE luciferase reporter activity relative to Blank (Blank = 1) (human BRS3 (hBRS3); replicate 2): 3.9246 | CRE luciferase reporter activity relative to Blank (Blank = 1) (human BRS3 (hBRS3); [1]): 4.0896 | NFAT luciferase reporter activity relative to Blank (Blank = 1) (human BRS3 (hBRS3); replicate 1): 6.5264 | NFAT luciferase reporter activity relative to Blank (Blank = 1) (human BRS3 (hBRS3); replicate 2): 6.2351 | NFAT luciferase reporter activity relative to Blank (Blank = 1) (human BRS3 (hBRS3); [1]): 6.3808 | SRF luciferase reporter activity relative to Blank (Blank = 1) (human BRS3 (hBRS3); replicate 1): 4.1204 | SRF luciferase reporter activity relative to Blank (Blank = 1) (human BRS3 (hBRS3); replicate 2): 3.9201 | SRF luciferase reporter activity relative to Blank (Blank = 1) (human BRS3 (hBRS3); [1]): 4.0202

B3: mouse (protein, UniProt O54798 1-399, looked up)
Bombesin receptor subtype-3: MSQRQSQSPNQTLISITNDTETSSSVVSNDTTHKGWTGDNSPGIEALCAIYITYAGIISVGILGNAILIKVFFKTKSMQTVPNIFITSLAFGDLLLLLTCVPVDATHYLAEGWLFGKVGCKVLSFIRLTSVGVSVFTLTILSADRYKAVVKPLERQPPNAILKTCAKAGGIWIVSMIFALPEAIFSNVYTFQDPNRNVTFESCNSYPISERLLQEIHSLLCFLVFYIIPLSIISVYYSLIARTLYKSTLNIPTEEQSHARKQIESRKRIAKTVLVLVALFALCWLPNHLLYLYHSFTYESYANHSDVPFVIIIFSRVLAFSNSCVNPFALYWLSKTFQQHFKAQLCCLKAEQPEPPLGDIPLNNLTVMGRVPATGSAHVSEISVTLFSGSSAKKGEDKV
luciferase, CRE (mouse BRS3 (mBRS3); value 1 of 3): 19.4537 | luciferase, NFAT (mouse BRS3 (mBRS3); value 1 of 3): 19.0254 | luciferase, SRE (mouse BRS3 (mBRS3); value 1 of 3): 1.5624 | luciferase, SRF (mouse BRS3 (mBRS3); value 1 of 3): 20.3125 | luciferase, CRE (mouse BRS3 (mBRS3); value 2 of 3): 18.5759 | luciferase, NFAT (mouse BRS3 (mBRS3); value 2 of 3): 18.2536 | luciferase, SRE (mouse BRS3 (mBRS3); value 2 of 3): 1.4021 | luciferase, SRF (mouse BRS3 (mBRS3); value 2 of 3): 21.0453 | luciferase, NFAT (mouse BRS3 (mBRS3); value 3 of 3): 18.6395 | luciferase, SRE (mouse BRS3 (mBRS3); value 3 of 3): 1.4823 | luciferase, SRF (mouse BRS3 (mBRS3); value 3 of 3): 20.6789

B4: mBRS3-Q339A (protein, UniProt O54798 1-399, looked up, variant Q339A)
Bombesin receptor subtype-3: B3 Bombesin receptor subtype-3 with Q339A
constitutive luciferase activity (mouse BRS3 (mBRS3); SRF, mean): 15.5479 | constitutive luciferase activity (mouse BRS3 (mBRS3); SRF, replicate 1): 16.2185 | constitutive luciferase activity (mouse BRS3 (mBRS3); SRF, replicate 2): 14.8773

B5: mBRS3-R268A (protein, UniProt O54798 1-399, looked up, variant R268A)
Bombesin receptor subtype-3: B3 Bombesin receptor subtype-3 with R268A
constitutive luciferase activity (mouse BRS3 (mBRS3); SRF, mean): 19.8563 | constitutive luciferase activity (mouse BRS3 (mBRS3); SRF, replicate 1): 19.1647 | constitutive luciferase activity (mouse BRS3 (mBRS3); SRF, replicate 2): 20.5479

B6: mBRS3-P372A (protein, UniProt O54798 1-399, looked up, variant P372A)
Bombesin receptor subtype-3: B3 Bombesin receptor subtype-3 with P372A
constitutive luciferase activity (mouse BRS3 (mBRS3); CRE, mean): 17.158 | constitutive luciferase activity (mouse BRS3 (mBRS3); CRE, replicate 1): 17.4198 | constitutive luciferase activity (mouse BRS3 (mBRS3); CRE, replicate 2): 16.8962

B7: mBRS3-P158A (protein, UniProt O54798 1-399, looked up, variant P158A)
Bombesin receptor subtype-3: B3 Bombesin receptor subtype-3 with P158A
constitutive luciferase activity (mouse BRS3 (mBRS3); CRE, mean): 15.9368 | constitutive luciferase activity (mouse BRS3 (mBRS3); CRE, replicate 1): 15.6335 | constitutive luciferase activity (mouse BRS3 (mBRS3); CRE, replicate 2): 16.2401

B8: mBRS3 (protein)
chain: B3 Bombesin receptor subtype-3
modifications: left off: V5 (from the vector pcDNA3.1-V5-His), end not stated, state not stated | His tag (from the vector pcDNA3.1-V5-His), end not stated, state not stated
CRE luciferase reporter activity relative to Blank (Blank = 1) (mouse BRS3 (mBRS3); CRE, replicate 1): 16.331 | CRE luciferase reporter activity relative to Blank (Blank = 1) (mouse BRS3 (mBRS3); CRE, replicate 2): 17.4509 | CRE luciferase reporter activity relative to Blank (Blank = 1) (mouse BRS3 (mBRS3); CRE, third line, unlabelled, equals mean of the two replicates): 16.8909 | constitutive luciferase activity (mouse BRS3 (mBRS3); CRE, mean): 17.9436 | constitutive luciferase activity (mouse BRS3 (mBRS3); CRE, replicate 1): 17.8927 | constitutive luciferase activity (mouse BRS3 (mBRS3); CRE, replicate 2): 17.9945 | NFAT luciferase reporter activity relative to Blank (Blank = 1) (mouse BRS3 (mBRS3); replicate 1): 16.9181 | NFAT luciferase reporter activity relative to Blank (Blank = 1) (mouse BRS3 (mBRS3); replicate 2): 16.5656 | NFAT luciferase reporter activity relative to Blank (Blank = 1) (mouse BRS3 (mBRS3); [1]): 16.7418 | SRF luciferase reporter activity relative to Blank (Blank = 1) (mouse BRS3 (mBRS3); SRF, replicate 1): 18.8375 | SRF luciferase reporter activity relative to Blank (Blank = 1) (mouse BRS3 (mBRS3); SRF, replicate 2): 17.9845 | SRF luciferase reporter activity relative to Blank (Blank = 1) (mouse BRS3 (mBRS3); SRF, third line, unlabelled, equals mean of the two replicates): 18.411 | constitutive luciferase activity (mouse BRS3 (mBRS3); SRF, mean): 20.9426 | constitutive luciferase activity (mouse BRS3 (mBRS3); SRF, replicate 1): 19.9659 | constitutive luciferase activity (mouse BRS3 (mBRS3); SRF, replicate 2): 21.9194

B9: mBRS3-A270I (protein, UniProt O54798 1-399, looked up, variant A270I)
Bombesin receptor subtype-3: B3 Bombesin receptor subtype-3 with A270I
constitutive luciferase activity (mouse BRS3 (mBRS3); SRF, mean): 14.9649 | constitutive luciferase activity (mouse BRS3 (mBRS3); SRF, replicate 1): 15.7177 | constitutive luciferase activity (mouse BRS3 (mBRS3); SRF, replicate 2): 14.2121

B10: mBRS3-R370A (protein, UniProt O54798 1-399, looked up, variant R370A)
Bombesin receptor subtype-3: B3 Bombesin receptor subtype-3 with R370A
constitutive luciferase activity (mouse BRS3 (mBRS3); CRE, mean): 17.8056 | constitutive luciferase activity (mouse BRS3 (mBRS3); CRE, replicate 1): 17.9268 | constitutive luciferase activity (mouse BRS3 (mBRS3); CRE, replicate 2): 17.6843

B11: mBRS3-F337A (protein, UniProt O54798 1-399, looked up, variant F337A)
Bombesin receptor subtype-3: B3 Bombesin receptor subtype-3 with F337A
constitutive luciferase activity (mouse BRS3 (mBRS3); SRF, mean): 15.0321 | constitutive luciferase activity (mouse BRS3 (mBRS3); SRF, replicate 1): 15.1183 | constitutive luciferase activity (mouse BRS3 (mBRS3); SRF, replicate 2): 14.946

B12: mBRS3-Q156A (protein, UniProt O54798 1-399, looked up, variant Q156A)
Bombesin receptor subtype-3: B3 Bombesin receptor subtype-3 with Q156A
constitutive luciferase activity (mouse BRS3 (mBRS3); CRE, mean): 16.9342 | constitutive luciferase activity (mouse BRS3 (mBRS3); CRE, replicate 1): 16.8106 | constitutive luciferase activity (mouse BRS3 (mBRS3); CRE, replicate 2): 17.0578
